For 14 proteins, plate clearing results are on record in the PETadex activity labels.

Substrate in this series: BHET
The note with it: 120 h.

B1: unnamed (protein)
chain: MKTNRRRRLALAAAALLLSVAAQAQNGSAPPGPDPDPDPNPPESDNPYQRGPDPTAASLEASSGPFAVSTTTVSSASGFGGGTIYYPTNTEGPFAAIAVVPGFVGTESSIDWWGPRLASHGFVVITIDTNSVFDQPDSRATQLMAALDYVISQSNTSSSPISGMVDSNRLGVMGHSMGGGGSLIAARDNPTLKAAIPLAPWNSSTNFSAITVPTLIIACENDTVAPVSSHASPFYNSIPSSTDKAFLEINGGDHFCANSGNSNKDILGKYGVAWMKRFLDNDTRYDPFLCGPNHEADGSAISEYRDTCPY
As to B1, the plate clearing entry is “not clears the plate”.

B2: unnamed (protein)
chain: MPMSLASASTLSGRAYSRSMRSRTRRRRARSRRRVPPVSARAETSKGSIGMPSSYGGARRGFSLGHPRGVRRGCVQATRRVRFLDWPRPAASRGAGDPSRGDTMTGTISSRIAMRAVACCIGLFAFTAGSASAQIGPDPTSASLNATAGSFAVSTSRVTLARGFGGGTIYYPTAAGSYGVVAISPGFTATESSIAWLGRRLATHGLVVITMNTNTTLDQPASRATQLMAALNHVVNSASSTVRSRVDSTRLAVAGHSMGGGGALIAAEDNPTLKAALPLTPWNLSTSFTQVRVPTLIVGSDGDTVAPVAAHARPFYASLPATTFKAYAELNAASHFTPNSTNTPIGRYGVTWMKRFVDADTRYSPFLCGAPHTAYATALVFDRYSQNCPY
For the protein B2, the plate clearing entry is reported as “not clears the plate”.

B3: unnamed (protein)
chain: MKSFVKMCVGCVLALVMLAGISSADYRRGPNPSDSMLEARTGPFDFERSTVSRLSAGGYGGGTLFYPTNTNEGPFAGIVVCPGYMESDGQVDWWGPRLASNGFVVFVMQPQNTYMNQPSQRGNQMLDALDDLVSWNNSRNHAIYGLLDPNRLGLMGHSMGGGGTLIAAEDEANNPAVKAAIPLAPYALEKDFSRITCPTMIVACGADMIAPVAQHAMPFYRSLSDSIDKMFIEFAGDSHFCVIDGNMHMPTLGKLGIAWMKVFMDEDARYLTFLNDTNYGATMEVSRFQSNRPYSVPGGGTSGDCQQWTSSNDQHVSAGRAYTQQETVGCDTVTTYYAVGSNMSIGTSGYSSTTLHSSDGGNSYYTGSCP
B3: the plate clearing entry was “not clears the plate”.

B4: unnamed (protein)
chain: MIHHFSVRALLAAGALLASAAVSAQTNPYERGPAPTTSSLEASRGPFSYQSFTVSRPSGYGAGTVYYPTNAGGPVGAIAIVPGFTARQSSINWWGPRLASHGFVVITIDTNSTLDQPDSRSRQQMAALNQVATLSRTSSSPIYNKVDTSRLGVMGWSMGGGGSLISARDNPSLKAAAPQAPWSSSKNFSSVTVPTLIIACENDSIAPVNQHADPFYDSMSRNPREFLEINGGSHSCANSGNSNQPLLGKKGVAWMKRFIDNDTRYTSFACSNPNSTRVSDFRVAACN
B4: the plate clearing result is reported as “not clears the plate”.

B5: unnamed (protein)
chain: MKTTTFKKSALSALTLLFSLSAFSGGGGGDDGNNDQLPAPDTCNSNCGYEIGPNPTLSFLEASQGPLSVSTTNVSSSVDGFGGGTIYYPTNTSQEMAAIAVAPGFTNTQSAIQWWGPILASHGFVVITIDTNGRFDQPESRSRQLDAALSYLISEGNRSSSPISGLVDENRLATMGFSMGGGGTLRSASRNRLSAAVPLAPWNTGGNNFDQIGVPTLIFACENDSTARVNSHASPFYNRIPSSTDKAYLEINNGPHNCANGNNSSNNALLSTYGVSWMKRFLDKDSRYNQFLCGPNHEANSRISEYRDTCNY
With B5, the plate clearing result is “not clears the plate”.

B6: unnamed (protein)
chain: MRPSSSSLHTAVPLRPRSRAMTALIALATTLGLALALLTAAAPPAAAADLLSQGRPATSSSTENTSTPASAAVDGNTGTRWSSTFSDPQWLSVDLGATATISQVVLRWETAYARAFQIQTSTNGTAWTTVHSSTSGTGGVQTLDVNGNGRYVRMLGTQRGTTYGYSLFEFQVYGSGGGTPPGNGIPDPTATSLETANGPLTTANYTVPNPSGYGSGTVTYPTSSGSYPSVVLMPGYQGTQQNLQWLAPRLASWGFVVVNVGTNTLTDDPESRGRQISAAGTQLLALGNAAGNPLSGKVNGTLGAVGHSMGGGGVMAALRDDSRFRAGVPTAPYHPNANFSSVTEPTFFLTCQSDSVAHGNTYAVPWYNSMSQAEKLYIEVPGDHLCPMTGSGNKAKQGKWIVSFLSLWLRADTRFGPFLCGPVRDPDKNNTSLVTRWMDTCAF
With B6, the plate clearing result is on record as “not clears the plate”.

B7: unnamed (protein)
chain: MRKILLSVFTILSLNSYSQCDDVISSSITNPGIYEVATLSESDGVRNGADYYGSTIYYPINTNNFLGSIVIVPGFVSYEFSIQEWGPFLASHGIVCMTIGTNSIFEQPNQRATALLDAMVSLKEENSRNASPLNSKLDIDNIALGGWSMGGGGAQIAAKMDSSIKVVIALCPWLETGLISEEYLNHQAPILFISAEYDGIANASLHATPQYELSSETTPKLIYEVANGGHTVANYPTSGNGEVGLIALSWLKKYLLNEDCYCPILLESPETASMYMTNINCENSNLNAQEIECTEGWSIISTYVNPINTNFSNFIAPVVNNLIIAKDYIGNAYLPEWDYNGIGNIEQGQGYLIKMLNTMSLAVVGEQIIASENSISLNEGWNLFANFNTESTNSDLSFAALVETENVIIIKDYIGNAMLPEWEFNGLGDLQPGRGYQIKVTANCELQY
Take B7: the plate clearing entry is “not clears the plate”.

B8: unnamed (protein)
chain: MRDPPEYGTQTLHYPTDADPPFAAIAIVPGFVSPESSIIEWGPFLASHGIVVLTIGTNSGSDSPEIRSTALLAALETIKSEHARAGSPIEGKIDTTRLAVGGWSMGGGGTLLTITAHPELKAGLAICPWYTNAFAFAGNTVPVIMFAGTADVLAGGMSQGFYDAIPASTPKMLFEIAGADHFYANNPLMPNVQVGLYGLSWLKVFLEGDDRYRQFLLGPPQNASDFRTTVQ
On to B8, for which the plate clearing result was “not clears the plate”.

B9: unnamed (protein)
chain: MATMPSGTTALLSVTFFCTTPPSALSLKRHRYPSFRFRSPISVFLSRTHDYMQCRAPWGCMYSLGTPRGSVASRRTINEFLVGGVTQMNTKVQGSSASSAPKVGYPAKSLLAAGILLASFAANADVLFQEDFNAGLGQFTSGGDVTVTSSGARMQGCYGCTDGSITSGAISTVGFNTISLTFTRSTTGLDSGEAGIAEFSTNGSTWTTLESVRTASGARTVALPSTAAGQSALRIRFRINASLSSEYYTVDGVRVEGTPDGTPCTDCPPTGETAIGPDPTTATLEATAGSFTVATINVPSSVTGYGGGVIYYPTAAGTYGVVAMCPGYTASASSLAWWGTRLASWGLIVHIIDTNSTGDFPASRATQLIAALDYVKALNTSSTSPLRGKVANREAVSGHSMGGGGTLIAANNNASRTTLRAAFAMTPWSSSPDSFPSIRAATFVLGCESDNVASVSSHAYPFYVSIPSTVKKAYGEINNADHYCPTQSNPYKAQLGKYGVAWMKRHLEGDTRFDPWLCGAPHQQVVSGTFWSRYLSTCPY
On to B9, for which the plate clearing entry is reported as “not clears the plate”.

B10: unnamed (protein)
chain: MSTGTRVPHAGRAATAPVEGPRQRGRKMQHSLSTSRSRKRVTGILASLAVAVGVGIAAGPVAHGADNPHERGPDPSESSIEAVRGSYSISDRNVSSWVSGFGGGTIYYPTTTSDGDFGAVVISPGYTGTESTISWLGPRLASQGFVVLTMATNSIYDQPDSRARQLQAALDYLTDDSPVADRIDPDRLALMGHSMGGGGTLRAVDDNPDIKAAIPMTPWHLKKDWSSVTTPTLIFGAEDDSVARHETHAEPFYESFDRDLPKAYLELDGASHFAPNYSNTTIAKYSISWLKRFVDDDERYTQFLCPGPSTGWFSDVEKYESSCPL
As to B10, the plate clearing result is recorded as “not clears the plate”.

B11: unnamed (protein)
chain: MKNITIRSTVRAAVAATLAATAVSGFAQTTAPTSASLNATAGPLAVSTSTVTAPRGFGGGTIYYPTTQARYGVIAISPGFTATETSLAWLGRRIATHGFVVITLNTLTTLDQPASRATQLMAALNHVVNSSPAAVKARIDTARLAVAGHSMGGGGALIAARDNPTLKASYSLTPWNTNSSFSTVRVPTMIVGADGDTIAPVGTHARPFYAALPGTTSKAYGELNNGTHFSPNSTNTPIGRYGVAWMKRFLDADTRYSTFLCGAEHTSYATALVFDRYNQNCPY
Consider B11, for which the plate clearing entry was “not clears the plate”.

B12: unnamed (protein)
chain: MKKSIFSKLVVSAGALLLSSTLYASGGGSGGGGSVPPVGNNPCGPDPSSSALSRTGSSGPFSVATKNVSSFSASGFGGGTIHYPTNSNCGRMGGIAVVPGYVSYESSIEWWGPRLASWGFVVITINTNSIYDQPNSRADQLSAALDHIIDDSTVGSLVDPDRLGAIGWSMGGGGSLKLATDRARVRAIIPQAPWYSGSYGSMDTPAFMIACENDAIAPTSSHVDDFYRDASGPKMKIEVNNGSHYCANSGYNESLLGKPGIAWMKRYIDGDTRYNQFLCGNESYGSSYEVSDYDYASCP
Regarding B12, the plate clearing entry is reported as “not clears the plate”.

B13: unnamed (protein)
chain: MKTKRHRTATTTVPLPKRSRLARLALAAALLLLSFAAQAQVVIFQENFNSGLGQFTASGTVSTSSGGARMQGCYGCTDGAITSSPISTVGFTNLSLSFDRTTTGLDSGEAGIAEYSTNGSTWTVIESTQSTSSGRVTIALPAAAAGQAALRLRFRVNASLSSETYTVDNIQLEGTPGGGPGGNPYQRGPDPTAALLEASTGPFTYATTTVSSTAASGYGGGTIYYPTNTAGPFAAIAVCPGYTATQSSISWWGPRLASHGFVVITIDTNSTSDQPSSRATQLMAALNQLVTFSNTSGHPIYGKVDPNRLGVMGHSMGGGGTLIAARDNPTLKAAIPLAPWNSSTNFSGVTVPTLIVACESDTIAPVSSHALPFYNSIPSSTKKAYLEINNGDHFCVTTGNSYKAILGKYGVAWMKRFLDNDTRYSPFLCGAPHQADLSGSAISEYRDNCPY
Consider B13, for which the plate clearing entry is recorded as “clears the plate (z > 3 vs empty vector)”.

B14: unnamed (protein)
chain: MKTSVTNFAKVTLTVATLLASAIASAQYTKGPDPTVAGLERDGSFTVRTTTVSSLAAVGFGKGTIYYPSAAGSYGVIAVSPGFTAYQSSISWIGSRLASHGFVVITIDTNTTSDQPDSRGSQLKAALDKVVSLSKSSSNVLYNKVDASRLAVAGHSMGGGGTLSAARDNPSYKAAVPLAPWHTTKSWPTLTVPTLIIGGEGDTVAGVSSHSIPFYTSISNSTKKAYMELNGEDHFFPQDATQYPLVGKYMISWFKRFVDNDTRYSAFICGAPHQTQIAVASKISDYRSNC
For B14, the plate clearing entry was “not clears the plate”.
